Substrate in data set [1]: CC(C)CC(=O)C(=O)O
Put plainly: OHB decarboxylase / branched-chain alpha-ketoacid decarboxylase kinetics, Ll-KdcA wild type. It is filed as biochemical, Lactococcus lactis B1157-NIZO. The note with it: other: 37° C., pH 7, coupled to horse liver alcohol dehydrogenase/NADH. The source says: (§1) The branched-chain alpha-ketoacid decarboxylase encoding gene Ll-kdcA from L. lactis B1157-NIZO was codon-optimized for expression in E. coli. […] The resulting pET28-Ll-kdcA plasmid was shown by DNA sequencing to have the correct sequence.
(§2) The plasmids were used to transform E. coli BL21 (DE3) star cells and the enzymes carrying an N-terminal hexa-His tag were expressed and purified as described in Example 1. Decarboxylase activity on 2-oxo-4-hydroxybutyrate (OHB), pyruvate (Sigma), and 4-methyl-2-oxovaleric acid (Sigma) was quantified.
(§3) OHB decarboxylase activity was assayed by coupling the decarboxylase activity to the NADPH-dependent reduction of the released 3-hydroxypropanal by purified aldehyde reductase, YqhD, from E. coli. The decarboxylation of pyruvate was coupled to the NADH-dependent reduction of acetaldehyde catalysed by yeast alcohol dehydrogenase. Branched-chain alpha-ketoacid decarboxylase activity was measured on 4-methyl-2-oxovaleric acid by coupling to the NADH-dependent reduction of 3-methylbutanal catalysed by horse liver alcohol dehydrogenase. […] Reactions were started by adding 20 mM 2-oxo-4-hydroxybutyrate (OHB), 10 mM 4-methyl-2-oxovaleric acid (MOV), or 5 mM pyruvate.

Substrate in data set [2]: O=C(O)C(=O)CCO
The description is as above. It is filed as biochemical, Lactococcus lactis B1157-NIZO. The note with it: other: 37° C., pH 7, coupled to E. coli YqhD/NADPH.
Excerpt: as §1, §2, §3

Substrate in data set [3]: CC(C)CC(=O)C(=O)O
As to the kind of experiment: OHB decarboxylase / MOV decarboxylase kinetics, Ll-KdcA V461I. It is filed as biochemical, Lactococcus lactis. The note with it: other: 37° C., pH 7, coupled to horse liver alcohol dehydrogenase/NADH. On the procedure: as §3
(§4) Site-directed mutagenesis of the L. lactis kdcA and the Z. mobilis Pdc genes was carried out using the oligonucleotide pairs listed in Table 9 and the pET28-Ll-kdcA and pET28-Zm-Pdc plasmids, respectively, as the template.
(§5) Mutant enzymes were expressed, purified and tested for OHB decarboxylase, pyruvate decarboxylase and MOV decarboxylase activity as described in Example 4.

Substrate in data set [4]: O=C(O)C(=O)CCO
The data set is described as above. It is filed as biochemical, Lactococcus lactis. The note with it: other: 37° C., pH 7, coupled to E. coli YqhD/NADPH. Here is the method: as §3, §4, §5

Substrate in data set [5]: CC(C)CC(=O)C(=O)O
As to the kind of experiment: OHB decarboxylase / MOV decarboxylase kinetics, Ll-KdcA G402S. It is filed as biochemical, Lactococcus lactis. Particulars: other: 37° C., pH 7, coupled to horse liver alcohol dehydrogenase/NADH. Here is the method: as §3, §4, §5

Substrate in data set [6]: O=C(O)C(=O)CCO
The data set is described as above. The note with it: other: 37° C., pH 7, coupled to E. coli YqhD/NADPH. It is filed as biochemical, Lactococcus lactis. On the procedure: as §3, §4, §5

Substrate in data set [7]: O=C(O)C(=O)CCO
As to the kind of experiment: OHB decarboxylase / pyruvate decarboxylase kinetics, Zm-Pdc W392L. It is filed as biochemical, Zymomonas mobilis. The note with it: other: 37° C., pH 7, coupled to E. coli YqhD/NADPH. On the procedure: as §3, §4, §5

Substrate in data set [8]: O=C(O)C(=O)CCO
Put plainly: OHB decarboxylase / pyruvate decarboxylase kinetics, Zm-Pdc G413N. It is filed as biochemical, Zymomonas mobilis. The note with it: other: 37° C., pH 7, coupled to E. coli YqhD/NADPH. Here is the method: as §3, §4, §5

Substrate in data set [9]: CC(=O)C(=O)O
As to the kind of experiment: OHB decarboxylase / pyruvate decarboxylase kinetics, Zm-Pdc W392Q. The note with it: other: 37° C., pH 7, coupled to yeast alcohol dehydrogenase/NADH. It is filed as biochemical, Zymomonas mobilis. On the procedure: as §3, §4, §5

Substrate in data set [10]: O=C(O)C(=O)CCO
The description is as above. It is filed as biochemical, Zymomonas mobilis. Particulars: other: 37° C., pH 7, coupled to E. coli YqhD/NADPH. On the procedure:
as §3, §4, §5

B1: Lactococcus lactis branched-chain alpha-ketoacid decarboxylase Ll-KdcA, wild type, SEQ ID No. 130 (Lactococcus lactis) (protein)
chain: MYTVGDYLLDRLHELGIEEIFGVPGDYNLQFLDQIISREDMKWIGNANELNASYMADGYARTKKAAAFLTTFGVGELSAINGLAGSYAENLPVVEIVGSPTSKVQNDGKFVHHTLADGDFKHFMKMHEPVTAARTLLTAENATYEIDRVLSQLLKERKPVYINLPVDVAAAKAEKPALSLEKESSTTNTTEQVILSKIEESLKNAQKPVVIAGHEVISFGLEKTVTQFVSETKLPITTLNFGKSAVDESLPSFLGIYNGKLSEISLKNFVESADFILMLGVKLTDSSTGAFTHHLDENKMISLNIDEGIIFNKVVEDFDFRAVVSSLSELKGIEYEGQYIDKQYEEFIPSSAPLSQDRLWQAVESLTQSNETIVAEQGTSFFGASTIFLKSNSRFIGQPLWGSIGYTFPAALGSQIADKESRHLLFIGDGSLQLTVQELGLSIREKLNPICFIINNDGYTVEREIHGPTQSYNDIPMWNYSKLPETFGATEDRVVSKIVRTENEFVSVMKEAQADVNRMYWIELVLEKEDAPKLLKKMGKLFAEQNK
As to B1, the Km (in general, the substrate concentration at which the rate is half of its maximum) in data set [1] was 150 µM; in [2] it was 4000 µM.

B2: Lactococcus lactis branched chain 2-oxoacid decarboxylase Ll-KdcA variant V461I, SEQ ID No. 198 (Lactococcus lactis; V461I) (protein)
chain: MYTVGDYLLDRLHELGIEEIFGVPGDYNLQFLDQIISREDMKWIGNANELNASYMADGYARTKKAAAFLTTFGVGELSAINGLAGSYAENLPVVEIVGSPTSKVQNDGKFVHHTLADGDFKHFMKMHEPVTAARTLLTAENATYEIDRVLSQLLKERKPVYINLPVDVAAAKAEKPALSLEKESSTTNTTEQVILSKIEESLKNAQKPVVIAGHEVISFGLEKTVTQFVSETKLPITTLNFGKSAVDESLPSFLGIYNGKLSEISLKNFVESADFILMLGVKLTDSSTGAFTHHLDENKMISLNIDEGIIFNKVVEDFDFRAVVSSLSELKGIEYEGQYIDKQYEEFIPSSAPLSQDRLWQAVESLTQSNETIVAEQGTSFFGASTIFLKSNSRFIGQPLWGSIGYTFPAALGSQIADKESRHLLFIGDGSLQLTVQELGLSIREKLNPICFIINNDGYTIEREIHGPTQSYNDIPMWNYSKLPETFGATEDRVVSKIVRTENEFVSVMKEAQADVNRMYWIELVLEKEDAPKLLKKMGKLFAEQNK
On to B2, for which the Km in [3] was found to be 150 µM; in [4] it was 2800 µM.

B3: Lactococcus lactis branched chain 2-oxoacid decarboxylase Ll-KdcA variant G402S, SEQ ID No. 196 (Lactococcus lactis; G402S) (protein)
chain: MYTVGDYLLDRLHELGIEEIFGVPGDYNLQFLDQIISREDMKWIGNANELNASYMADGYARTKKAAAFLTTFGVGELSAINGLAGSYAENLPVVEIVGSPTSKVQNDGKFVHHTLADGDFKHFMKMHEPVTAARTLLTAENATYEIDRVLSQLLKERKPVYINLPVDVAAAKAEKPALSLEKESSTTNTTEQVILSKIEESLKNAQKPVVIAGHEVISFGLEKTVTQFVSETKLPITTLNFGKSAVDESLPSFLGIYNGKLSEISLKNFVESADFILMLGVKLTDSSTGAFTHHLDENKMISLNIDEGIIFNKVVEDFDFRAVVSSLSELKGIEYEGQYIDKQYEEFIPSSAPLSQDRLWQAVESLTQSNETIVAEQGTSFFGASTIFLKSNSRFIGQPLWSSIGYTFPAALGSQIADKESRHLLFIGDGSLQLTVQELGLSIREKLNPICFIINNDGYTVEREIHGPTQSYNDIPMWNYSKLPETFGATEDRVVSKIVRTENEFVSVMKEAQADVNRMYWIELVLEKEDAPKLLKKMGKLFAEQNK
With B3, the Km in data set [5] and in data set [6] was 1500 µM in each case.

B4: Zymomonas mobilis pyruvate decarboxylase Zm-Pdc variant W392L, SEQ ID No. 192 (Zymomonas mobilis subsp. mobilis ZM4 = ATCC 31821; W392L) (protein)
chain: MSYTVGTYLAERLVQIGLKHHFAVAGDYNLVLLDNLLLNKNMEQVYCCNELNCGFSAEGYARAKGAAAAVVTYSVGALSAFDAIGGAYAENLPVILISGAPNNNDHAAGHVLHHALGKTDYHYQLEMAKNITAAAEAIYTPEEAPAKIDHVIKTALREKKPVYLEIACNIASMPCAAPGPASALFNDEASDEASLNAAVEETLKFIANRDKVAVLVGSKLRAAGAEEAAVKFADALGGAVATMAAAKSFFPEENPHYIGTSWGEVSYPGVEKTMKEADAVIALAPVFNDYSTTGWTDIPDPKKLVLAEPRSVVVNGIRFPSVHLKDYLTRLAQKVSKKTGALDFFKSLNAGELKKAAPADPSAPLVNAEIARQVEALLTPNTTVIAETGDSLFNAQRMKLPNGARVEYEMQWGHIGWSVPAAFGYAVGAPERRNILMVGDGSFQLTAQEVAQMVRLKLPVIIFLINNYGYTIEVMIHDGPYNNIKNWDYAGLMEVFNGNGGYDSGAGKGLKAKTGGELAEAIKVALANTDGPTLIECFIGREDCTEELVKWGKRVAAANSRKPVNKLL
B4: the Km in data set [7] is 3700 µM.

B5: Zymomonas mobilis pyruvate decarboxylase Zm-Pdc variant G413N, SEQ ID No. 194 (Zymomonas mobilis subsp. mobilis ZM4 = ATCC 31821; G413N) (protein)
chain: MSYTVGTYLAERLVQIGLKHHFAVAGDYNLVLLDNLLLNKNMEQVYCCNELNCGFSAEGYARAKGAAAAVVTYSVGALSAFDAIGGAYAENLPVILISGAPNNNDHAAGHVLHHALGKTDYHYQLEMAKNITAAAEAIYTPEEAPAKIDHVIKTALREKKPVYLEIACNIASMPCAAPGPASALFNDEASDEASLNAAVEETLKFIANRDKVAVLVGSKLRAAGAEEAAVKFADALGGAVATMAAAKSFFPEENPHYIGTSWGEVSYPGVEKTMKEADAVIALAPVFNDYSTTGWTDIPDPKKLVLAEPRSVVVNGIRFPSVHLKDYLTRLAQKVSKKTGALDFFKSLNAGELKKAAPADPSAPLVNAEIARQVEALLTPNTTVIAETGDSWFNAQRMKLPNGARVEYEMQWNHIGWSVPAAFGYAVGAPERRNILMVGDGSFQLTAQEVAQMVRLKLPVIIFLINNYGYTIEVMIHDGPYNNIKNWDYAGLMEVFNGNGGYDSGAGKGLKAKTGGELAEAIKVALANTDGPTLIECFIGREDCTEELVKWGKRVAAANSRKPVNKLL
Consider B5, for which the Km in [8] amounted to 1400 µM.

B6: Zymomonas mobilis pyruvate decarboxylase Zm-Pdc variant W392Q, SEQ ID No. 190 (Zymomonas mobilis subsp. mobilis ZM4 = ATCC 31821; W392Q) (protein)
chain: MSYTVGTYLAERLVQIGLKHHFAVAGDYNLVLLDNLLLNKNMEQVYCCNELNCGFSAEGYARAKGAAAAVVTYSVGALSAFDAIGGAYAENLPVILISGAPNNNDHAAGHVLHHALGKTDYHYQLEMAKNITAAAEAIYTPEEAPAKIDHVIKTALREKKPVYLEIACNIASMPCAAPGPASALFNDEASDEASLNAAVEETLKFIANRDKVAVLVGSKLRAAGAEEAAVKFADALGGAVATMAAAKSFFPEENPHYIGTSWGEVSYPGVEKTMKEADAVIALAPVFNDYSTTGWTDIPDPKKLVLAEPRSVVVNGIRFPSVHLKDYLTRLAQKVSKKTGALDFFKSLNAGELKKAAPADPSAPLVNAEIARQVEALLTPNTTVIAETGDSQFNAQRMKLPNGARVEYEMQWGHIGWSVPAAFGYAVGAPERRNILMVGDGSFQLTAQEVAQMVRLKLPVIIFLINNYGYTIEVMIHDGPYNNIKNWDYAGLMEVFNGNGGYDSGAGKGLKAKTGGELAEAIKVALANTDGPTLIECFIGREDCTEELVKWGKRVAAANSRKPVNKLL
With B6, the Km stood at 9200 µM in data set [9] and 2900 µM in data set [10].

The values are drawn from patent US9605283B2, “Microorganism modified for the production of 1,3-propanediol” (INSTITUT NATIONAL DES SCIENCES APPLIQUÉES, priority 2012, dated 2017).
